Results published in the supplement of paper PMC12042874.
± gives the uncertainty stated by the source.

assay: amyloid nucleation score (Sup35N fusion, yeast selection) (log enrichment); library NNK1; higher = more nucleation; inactive = no reads after selection
Summary of the method: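 The nucleation score is the log enrichment of output over input reads, calculated with DiMSum and centred on the mode score of non-aggregating sequences. Sequences with under 100 input reads were excluded. Reads came from Illumina sequencing of plasmid inserts from psi-negative yeast expressing Sup35N fused to peptides of 20 random codons, induced 24 hours with 100 μM copper sulfate and grown 7 days at 30°C without adenine and uracil.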

| Substance | amyloid nucleation score |
| --- | --- |
| FSSWQGMGKQYWPERIRCAD | 0.425 ± 0.46 |
| FSWADLDRYCISLQNQGPLA | 0.66 ± 0.42 |
| FSYTDNSTRFVTFQLRNIPA | 0.598 ± 0.33 |
| FTAVK | -0.188 ± 0.46 |
| FTCFAK | 1.14 ± 0.52 |
| FTCKWRVGFWTPVSDPV | -1.27 ± 0.7 |
| FTFEFVNHMASVYRSLMYER | -0.356 ± 1.1 |
| FTKGNYCSGLLGSSSRWTPF | 0.926 ± 0.74 |
| FTLMGNSCHRGLV | -0.66 ± 0.85 |
| FTNASDYYELVLHCRGAEKE | 0.523 ± 0.3 |
| FTQKIFQTFFDHAYNWFSRV | 0.918 ± 0.46 |
| FTRGDICLYLFCELFRPVNC | 2.29 ± 0.22 |
| FTSAASQFRVMSGQSNSKYP | -1.2 ± 2.4 |
| FTSVITLMFNYNTFWKKSSY | 1.12 ± 0.27 |
| FTVLWCRSMLGC | -0.111 ± 0.4 |
| FTVVWGHQVYVMTSPFSSAG | 5.76 ± 0.062 |
| FVKRF | 0.073 ± 0.4 |
| FVLHCCRLRGHTSSSHWLGA | 0.245 ± 0.43 |
| FVLLELVSVVRVLHYDGIWD | 0.079 ± 0.51 |
| FVLLRIRHRFFWGSCLNPFQ | 1.12 ± 0.26 |
| FVLQWRNIRVVDLRMRPYPK | 0.508 ± 0.28 |
| FVMLFRFRVVCRFV | inactive |
| FVSGVFGYRMYDPRRVWLSL | -0.178 ± 0.7 |
| FVVRCDYVVLTLDSGDRSYV | 3.37 ± 0.071 |

| Substance | amyloid nucleation score |
| --- | --- |
| FVVVHRSASGPEIQFLKGGR | -0.684 ± 0.4 |
| FVYNTSFLYSVCNNWAKRSP | 7.758 ± 0.053 |
| FWIDLGMTLGTCRSFLSLRS | 0.217 ± 0.6 |
| FWIWVCSDLLLD | 0.423 ± 0.43 |
| FWLFSGLCNRFNTGYDFLKS | 1.12 ± 0.48 |
| FWLLS | -0.153 ± 1 |
| FWRGDRLVMSFEE | -0.285 ± 0.83 |
| FWRMTFQRHEKLSHQ | -0.28 ± 0.38 |
| FWSVYKT | 0.744 ± 0.27 |
| FWVFLTRKLCYSHGRVLALV | -0.708 ± 1.1 |
| FYGQRPKMLCPTRAEDLTKA | -0.269 ± 0.88 |
| FYIVIDYFRNCAG | 0.005 ± 0.38 |
| FYPRM | 0.781 ± 0.54 |
| FYRFDQRNLEDVGGGMYGSS | 0.3 ± 0.83 |
| FYTAYCGLALRLVTTQPCMS | -0.001 ± 0.49 |
| FYVANVACSCAFMLPITNVR | -0.461 ± 0.73 |
| GAFAFQKL | 0.358 ± 1.1 |
| GAFEDEVVLLTHTL | -0.447 ± 1.1 |
| GANKTWCYKSSQCVISDGLG | -0.103 ± 0.66 |
| GARYNASDRGEASYLIEHCG | -0.531 ± 0.99 |
| GARYVLYMLT | -0.85 ± 0.88 |
| GATIIKSFLDRNSTTWLSLV | -0.451 ± 0.63 |
| GAVICICCIIIGKYC | 3.74 ± 0.082 |
| GAYNWVF | -0.107 ± 0.55 |

| Substance | amyloid nucleation score |
| --- | --- |
| GCDTQLQMGLFMSYIMNTSV | -0.621 ± 1.1 |
| GCLFICSMRELYKSASSTMR | 0.141 ± 0.48 |
| GCLNDCGSLVWYGVCKSCLP | 0.446 ± 0.6 |
| GCSVWDCWGLRVRSVGRSDR | 0.449 ± 0.34 |
| GCVGGWSVEFITLGYWSQRG | 1.17 ± 0.88 |
| GCYQYWCRSFHVGEIPVP | -0.003 ± 1.1 |
| GDCFFQSYDTVFNFASR | 2.24 ± 0.2 |
| GDFKTRLFSCLDSRLILGRG | -0.485 ± 1.5 |
| GDIALS | -0.292 ± 0.41 |
| GDNACLLSSIEDALDSVQVL | 0.99 ± 0.67 |
| GDTYHNYVWRLDACSTLPWY | -0.547 ± 0.53 |
| GDVFVYSDDWGDGVNGSGGR | -1.96 ± 2.4 |
| GENYLGCLGSFWKTSNTCCP | -0.881 ± 1.4 |
| GETRVLHDKVGRKFGLCKDF | 0.32 ± 0.41 |
| GFAWYDYMLQYIVVLVGLYN | -0.159 ± 1.4 |
| GFECSCKYHDFTGSALCNTL | 0.613 ± 0.36 |
| GFFFVFHYSGTHGLICCYTL | -0.22 ± 0.41 |
| GFGMFATTGKVLSMRAFQ | 0.025 ± 0.59 |
| GFGPTIYSFRSSGQGNGLMP | -0.3 ± 0.27 |
| GFGSRRYFRAVLSCPR | 0.852 ± 0.93 |
| GFLTSSIYRSLAVQLNQSWW | 0.078 ± 0.32 |
| GFMIICN | -0.405 ± 0.88 |
